Laboratory results published in patent US6034062A, “Bone morphogenetic protein (BMP)-9 compositions and their uses” (Genetics Institute, Inc., priority 1997, dated 2000).

Tests used:
[1] = tested on: BMP-9 receptors expressed on HepG2 cells; assay: 125I-BMP-9 binding to HepG2 cells; settings: HepG2 cells, 125I-BMP-9 and 250-fold excess of unlabeled ligand
Procedure: BMP-9 responsiveness in parenchymal liver cells is tested by screening four liver cell lines for their ability to bind iodinated, CHO-derived BMP-9. […] Specific binding of BMP-9 to HepG2 cells is carried out by incubating HepG2 cells grown to confluence in Dulbecco's Modified Eagle's Medium (DME) containing 10% heat-inactivated fetal calf serum (FCS) on gelatinized 6 well plates with 2 ng/ml ^125 I-BMP-9 and increasing concentrations of unlabelled BMP-9 in binding buffer (136.9 mM NaCl, 5.37 mM KCl, 1.26 mM CaCl2, 0.64 mM MgSO4, 0.34 mM Na2 HPO4, 0.44 mM KH2 PO4, 0.49 mM MgCl2, 25 mM HEPES and 0.5% BSA, pH 7.4) for 20 hours at 4° C. to achieve binding equilibrium. This incubation follows a one hour preincubation at 37° C. in binding buffer alone. For crosslinking experiments, the cells were incubated with 500 μM disuccinimidyl suberate for 20 minutes at […] following binding. Cell extracts were analyzed on SDS-PAGE. […] To test the binding specificity of the receptors for BMP-9, HepG2 cells were incubated with ^125 I-BMP-9 and a 250-fold excess of different unlabeled ligands.

[2] = tested on: Articular cartilage explants from calf carpal joints; assay: Articular cartilage assay (proteoglycan synthesis, sulfate incorporation); format: cell-based; settings: 100 ng/ml, calf articular cartilage explants
Procedure: The effect of BMP-9 on articular cartilage proteoglycan and DNA synthesis is assayed to determine if BMP-9 is involved in the regulation of metabolism of differentiated articular cartilage.
Articular cartilage explants from calf carpal joints are maintained in DMEM with 50 μg/ml ascorbate, 4 mM glutamine and antibiotics for 3 days. Cytokines (rhBMP-2, rhBMP-4, rhBMP-6 and rhBMP-9, IGF-1, bFGF (1-1000 ng/ml), and TGFβ (1-100 ng/ml)) are added to the medium and culture is continued for 3 more days. Medium is changed daily. Twenty-four hours prior to harvest, explants are pulsed with 50 μCi/ml ^35 SO4 or 25 μCi/ml ^3 H-thymidine. Explants are solubilized and separation of free isotope is performed by gel chromatography. Total DNA of each explant is measured by a spectrophotometric assay.

Molecule | crossreactivity of BMP-9 receptors with unlabeled ligand [1] | proteoglycan synthesis [2]
TGF-β2: transforming growth factor β2 (protein) ALDAAYCFRNVQDNCCLRPLYIDFKRDLGWKWIHEPKGYNANFCAGACPYLWSSDTQHSRVLSLYNTINPEASASPCCVSQDLEPLTILYYIGKTPKIEQLSNMIVKSCKCS | no crossreactivity | –
BMP-3: BMP protein used as unlabeled competing ligand (protein) QWIEPRNCARRYLKVDFADIGWSEWIISPKSFDAYYCSGACQFPMPKSLKPSNHATIQSIVRAVGVVPGIPEPCCVPEKMSSLSILFFDENKNVVLKVYPNMTVESCACR | no crossreactivity | –
BMP-7: BMP protein used as unlabeled competing ligand (protein) STGSKQRSQNRSKTPKNQEALRMANVAENSSSDQRQACKKHELYVSFRDLGWQDWIIAPEGYAAYYCEGECAFPLNSYMNATNHAIVQTLVHFINPETVPKPCCAPTQLNAISVLYFDDSSNVILKKYRNMVVRACGCH | no crossreactivity | –
BMP-12: BMP protein used as unlabeled competing ligand (protein, UniProt Q7Z4P5 322-450, looked up) Growth/differentiation factor …: TALAGTRTAQGSGGGAGRGHGRRGRSRCSRKPLHVDFKELGWDDWIIAPLDYEAYHCEGLCDFPLRSHLEPTNHAIIQTLLNSMAPDAAPASCCVPARLSPISILYIDAANNVVYKQYEDMVVEACGCR | no crossreactivity | –
BMP-4: BMP protein, cytokine in cartilage assay and competing ligand (protein) SPKHHSQRARKKNKNCRRHSLYVDFSDVGWNDWIVAPPGYQAFYCHGDCPFPLADHLNSTNHAIVQTLVNSVNSSIPKACCVPTELSAISMLYLDEYDKVVLKNYQEMVVEGCGCR | limited crossreactivity | significantly more active in stimulating proteoglycan synthesis
BMP-5: BMP protein used as unlabeled competing ligand (protein) AANKRKNQNRNKSSSHQDSSRMSSVGDYNTSEQKQACKKHELYVSFRDLGWQDWIIAPEGYAAFYCDGECSFPLNAHMNATNHAIVQTLVHLMFPDHVPKPCCAPTKLNAISVLYFDDSSNVILKKYRNMVVRSCGCH | no crossreactivity | –
BMP-6: BMP protein, cytokine in cartilage assay and competing ligand (protein) SASSRRRQQSRNRSTQSQDVARVSSASDYNSSELKTACRKHELYVSFQDLGWQDWIIAPKGYAANYCDGECSFPLNAHMNATNHAIVQTLVHLMNPEYVPKPCCAPTKLNAISVLYFDDNSNVILKKYRNMVVRACGCH | no crossreactivity | significantly more active in stimulating proteoglycan synthesis
